Laboratory results: US9757451B2, “Use of RANK/RANKL antagonists for treating muscular dystrophy” (UNIVERSITÉ LAVAL, priority 2011, dated 2017)
Entries after “also recorded” stand apart in the source; their conditions may differ.

Key:
[1] = cited from earlier work
[2] = system: C2C12 myotubes; test: Dexamethasone-induced myotube atrophy (myotube diameter) in vitro; type: cell-based, mouse
Protocol: FIG. 9. […] Myotubes were incubated with DEX (1,000 nM) and/or OPG at 10 ng/mL or 100 ng/mL. OPG used and tested in vivo and in vitro was bought from R&D systems (Catalog number:459-MO).
To further investigate how RANK/RANKL influences muscle function, the present inventor(s) have assessed the effect of DEX on C2C12 myoblasts grown in DMEM containing 10% FBS and 1% antibiotic-antimycotic in 96-well plates at a density of 3,000 myoblasts/well. The present inventor(s) used this mouse myoblast cell line because the present inventor(s) are very familiar with it and because it easily differentiates into myotubes and responds to RANKL stimulation. Confluent myoblasts on coverslips (approximately 300,000/well) were incubated in DMEM containing 2% horse serum for five days to allow them to differentiate into myotubes. The myotubes were then exposed to […]. This concentration was sufficient to induce a 15-20% decrease in myotube diameter relative to control myotubes after 48 h. Myotubes in other wells were treated or not with 1 mM DEX combined with 100 ng/ml of OPG. In the experiment proposed herein, myotube atrophy were determined by measuring the diameters of the myotubes at 100× magnification using a light microscope (Nikon). Three different sites in each well were blindly identified and observed throughout the experiment. The average were considered as a single value. Myotube diameters were quantified using the ImageJ digital imaging system (NIH). The diameters of 150 to 200 myotubes per well were measured after 24 and 48 h. Measurements were performed in triplicate for all the experimental conditions to enable statistical comparisons between groups.

[3] = system: C2C12 myotubes; test: Ca2+ concentration in myotubes measured with fluo-4; type: cell-based, mouse; settings: RANKL 100 ng/ml, 10 min; myotubes 5 days in differentiation medium
Protocol: FIG. 17: RANK/RANKL interaction influences Ca^2+ homeostasis and activates different cell signaling pathways. […] Data are presented as mean+/−sem.
C2C12 myotubes fully differentiated were incubated with fluo-4 to measure Ca^2+ concentration. C2C12 Myotubes were then exposed to RANKL (100 ng/ml) for 10 min. […] (FIG. 17A). Serca activity in sham and denervated RANK^del/fl compared to sham and denervated RANK^fl/fl EDL muscles were then measured by spectrofluorimetric analysis. SERCA activity increased by more than 2-fold in EDL muscles from sham and denervated RANK^del/fl mice (FIG. 17B). […] Graph representing the difference in the expression of SERCA isoforms for each fiber type for SOL and EDL muscles compared to sham RANK^fl/fl mice. (FIG. 17E). […] Data are presented as mean+/−sem.

[4] = system: mdx mice; test: Contractile and physical properties of SOL and EDL muscles of mdx mice injected with OPG; type: in vivo; settings: for half relaxation time (½ RT) / maximal absolute force (Po) / maximal twitch tension (Pt) / time to peak tension (TPT) / Muscle weight: mdx, mean +/- sem
Description: (§1) Muscle contractility measurements were used to test the involvement of the RANK/RANKL pathway in muscle dysfunction. In vitro measurements of muscle contractility are the gold standard for assessing muscle function and were be performed as described previously^68,69. […] Twitch and tetanic contractions were elicited, and the following measurements recorded: maximum twitch tension (Pt), time to peak tension (TPT), one-half relaxation time (RT 1/2), and maximum tetanic tension (Po). To assess muscle fatigue, EDL and SOL muscles from RANK^fl/fl and RANK^del/fl mice were stimulated at 1 train/s at 50 Hz, and the time to the loss of 30% of their initial force recorded. […] Consistent with this observation that RANK^del/fl mice expressed a faster muscle phenotype than wild type, SOL and EDL muscles from these mice were less resistant to a fatigue protocol (FIGS. 5,6). The muscles were weighed without their tendons to quantify muscle mass and to allow the calculation of the maximum specific Po (N/cm^2).
Male mdx mice (C57BL/10ScSnJ) were purchased from Jackson Laboratories. Mdx mice were then injected i.p. with OPG (0.3 mg/kg/day) for 10 days during the 3rd and 4th week of life. Body weight were measured every 2 days and drug volume were adjusted accordingly. This concentration of OPG is selected because it is known to inhibit RANKL and bone resorption.
(§2) SOL and EDL muscles from male wild type and mdx mice were dissected and contractile properties analyzed at 4 weeks of age.

[5] = system: C57BL/10J mice; test: Contractile and physical properties of SOL and EDL muscles of C57BL/10J control mice injected with OPG; type: in vivo; settings: OPG 0.3 mg/kg/day i.p. 10 days, mean +/- sem
Description: as §1, §2

[6] = EDL muscle ex vivo, OPG 0.3 mg/kg/day i.p. 10 days
[7] = SOL muscle ex vivo, OPG 0.3 mg/kg/day i.p. 10 days

Molecule: Denosumab: full human antibody that shares the pharmalogical attributes of OPG; RANKL antagonist
- half-life relative to OPG [1]: significant longer half-life

Molecule: C[C@@H]1C[C@H]2[C@@H]3CCC4=CC(=O)C=C[C@]4(C)[C@@]3(F)[C@@H](O)C[C@]2(C)[C@@]1(O)C(=O)CO [DEX, dexamethasone, reference compound]
- decrease in myotube diameter relative to control myotubes ([2]; 1 mM DEX, after 48 h): 15-20%

B1: RANKL: receptor-activator of nuclear factor κβ ligand, added at 100 ng/ml to C2C12 myotubes (protein, UniProt O35235 139-316, looked up)
Tumor necrosis factor ligand …: FSGAPAMMEGSWLDVAQRGKPEAQPFAHLTINAASIPSGSHKVTLSSWYHDRGWAKISNMTLSNGKLRVNQDGFYYLYANICFRHHETSGSVPTDYLQLMVYVVKTSIKIPSSHNLMKGGSTKNWSGNSEFHFYSINVGGFFKLRAGEEISIQVSNPSLLDPDQDATYFGAFKVQDID
- effect on DEX-induced myotube atrophy ([2]; RANKL with DEX): exacerbates
- cytosolic Ca2+ (mean fluorescence intensity of fluo-4) [3]: increased the release of cytosolic Ca^2+; also recorded: increased mean fluorescence intensity of fluo-4

B2: OPG: Osteoprotegerin, binds RANKL and inhibits the RANK/RANKL interaction; bought from R&D systems (Catalog number:459-MO) (protein, UniProt O08712 22-401, looked up)
Tumor necrosis factor …: ETLPPKYLHYDPETGHQLLCDKCAPGTYLKQHCTVRRKTLCVPCPDHSYTDSWHTSDECVYCSPVCKELQSVKQECNRTHNRVCECEEGRYLEIEFCLKHRSCPPGSGVVQAGTPERNTVCKKCPDGFFSGETSSKAPCIKHTNCSTFGLLLIQKGNATHDNVCSGNREATQKCGIDVTLCEEAFFRFAVPTKIIPNWLSVLVDSLPGTKVNAESVERIKRRHSSQEQTFQLLKLWKHQNRDQEMVKKIIQDIDLCESSVQRHLGHSNLTTEQLLALMESLPGKKISPEEIERTRKTCKSSEQLLKLLSLWRIKNGDQDTLKGLMYALKHLKTSHFPKTVTHSLRKTMRFLHSFTMYRLYQKLFLEMIGNQVQSVKISCL
- effect on DEX-induced atrophic and phenotype change process in myotubes ([2]; 1 mM DEX, >100 ng/ml of OPG, preliminary results): reversed the atrophic and phenotype change process
- effect on DEX-induced myotube atrophy ([2]; DEX 1,000 nM, OPG 100 ng/ml, 24 and 48 h (FIG. 9)): protects against DEX-induced myotube atrophy; also recorded: totally reversed the atrophic process; also recorded: prevents myotube atrophy
- half relaxation time (½ RT) [4, 6]: 20.67 ± 2.18 ms
- maximal absolute force (Po) [4, 6]: 10.3 ± 1.3 g
- maximal twitch tension (Pt) [4, 6]: 2.01 ± 0.2 g
- time to peak tension (TPT) [4, 6]: 29.75 ± 7.47 ms
- Muscle weight ([4]; EDL muscle, OPG 0.3 mg/kg/day i.p. 10 days): 4.96 ± 0.93 mg
- half relaxation time (½ RT) [4, 7]: 38 ± 3.3 ms
- maximal absolute force (Po) [4, 7]: 8.02 ± 2.99 g
- maximal twitch tension (Pt) [4, 7]: 1.2 ± 0.18 g
- time to peak tension (TPT) [4, 7]: 35.2 ± 2.43 ms
- Muscle weight ([4]; SOL muscle, OPG 0.3 mg/kg/day i.p. 10 days): 4.90 ± 0.72 mg
- increase of maximum force production (maximum specific tetanic force) of EDL muscles ([4]; male mdx mice, OPG 0.3 mg/kg daily 10 days from day 18 after birth, vs PBS): more than 200%
- specific muscle force of EDL muscles ([4]; young mdx mice (28 days), OPG 0.3 mg/kg/day i.p. 10 days, compared to PBS): Specific muscle force preservation is also observed
- half relaxation time (½ RT) ([5]; EDL muscle ex vivo): 20.3 ± 2.4 ms
- maximal absolute force (Po) ([5]; EDL muscle ex vivo): 14.53 ± 3.44 g
- maximal twitch tension (Pt) ([5]; EDL muscle ex vivo): 2.52 ± 0.26 g
- time to peak tension (TPT) ([5]; EDL muscle ex vivo): 25.8 ± 2.6 ms
- Muscle weight ([5]; EDL muscle): 4.18 ± 0.25 mg
- half relaxation time (½ RT) ([5]; SOL muscle ex vivo): 46.8 ± 5.7 ms
- maximal absolute force (Po) ([5]; SOL muscle ex vivo): 10.79 ± 0.27 g
- maximal twitch tension (Pt) ([5]; SOL muscle ex vivo): 1.8 ± 0.06 g
- time to peak tension (TPT) ([5]; SOL muscle ex vivo): 50.75 ± 3.83 ms
- Muscle weight ([5]; SOL muscle): 3.73 ± 0.20 mg
